Data: patent US20250171542A1 (ADEPT THERAPEUTICS, published 2025)

T1: CD86 (Sino Biological, Cat #10699-H08H) (UniProt P42081 24-245)
T1 sequence (looked up): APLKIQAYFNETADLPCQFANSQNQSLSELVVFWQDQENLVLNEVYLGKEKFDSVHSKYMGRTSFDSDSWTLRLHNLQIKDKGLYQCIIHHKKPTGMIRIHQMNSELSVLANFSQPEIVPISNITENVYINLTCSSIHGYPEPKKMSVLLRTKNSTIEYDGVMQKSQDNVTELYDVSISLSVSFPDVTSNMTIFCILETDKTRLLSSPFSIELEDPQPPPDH

T2: B7-H3 (Sino Biological, Cat #11188-H08H) (UniProt Q5ZPR3 29-461)
T2 sequence (looked up): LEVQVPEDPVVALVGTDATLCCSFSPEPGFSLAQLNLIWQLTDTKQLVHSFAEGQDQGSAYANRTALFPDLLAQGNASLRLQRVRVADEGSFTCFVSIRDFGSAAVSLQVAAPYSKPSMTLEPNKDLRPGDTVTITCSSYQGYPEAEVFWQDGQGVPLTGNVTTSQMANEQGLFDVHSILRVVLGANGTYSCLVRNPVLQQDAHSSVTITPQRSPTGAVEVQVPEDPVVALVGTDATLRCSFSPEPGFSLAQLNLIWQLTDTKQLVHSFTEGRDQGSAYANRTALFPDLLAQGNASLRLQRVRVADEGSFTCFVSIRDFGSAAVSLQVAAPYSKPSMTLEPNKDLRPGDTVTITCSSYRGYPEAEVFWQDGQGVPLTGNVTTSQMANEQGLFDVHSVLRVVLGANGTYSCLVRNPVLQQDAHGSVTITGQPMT

T3: PD-L2 (Sino Biological, Cat #10292-H08H) (UniProt Q9BQ51 20-219)
T3 sequence (looked up): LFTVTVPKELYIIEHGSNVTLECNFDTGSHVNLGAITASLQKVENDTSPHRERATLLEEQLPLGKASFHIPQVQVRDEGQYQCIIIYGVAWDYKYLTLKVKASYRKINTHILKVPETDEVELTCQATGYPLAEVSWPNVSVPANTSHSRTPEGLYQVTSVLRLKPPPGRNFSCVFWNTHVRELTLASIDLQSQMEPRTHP


Legend:
[1] = molecular target: mouse PD-L1 (Sino Biological, Cat #50010-M08H) (mouse, UniProt Q9EP73 19-238); assay: ELISA
[2] = molecular target: T1, CD86 (Sino Biological, Cat #10699-H08H); assay: ELISA
[3] = molecular target: T2, B7-H3 (Sino Biological, Cat #11188-H08H); assay: ELISA
[4] = molecular target: T3, PD-L2 (Sino Biological, Cat #10292-H08H); assay: ELISA
[5] = molecular target: T4, human PD-L1 expressed on cell surface (human, UniProt Q9NZQ7 19-290); assay: cell-based or functional assay
[6] = molecular target: T5, human PD-L1-mFc fusion protein (Sino Biological, Cat #10084-H05H) (human, UniProt Q9NZQ7 19-239); assay: competition ELISA, coated human PD-L1-mFc, competitor human PD-1-His-hFc-Biotin
T5 construct: Bought protein; also called human PD-L1 mouse Fc fusion protein; not shown: mouse Fc
Description: Briefly, microplates were precoated with […] of human PD-L1-mFc fusion protein (Sino Biological, Cat #10084-H05H) diluted in 1×PBS (GIBCO) and incubated overnight at 4° C.; Plates were washed four times with 300 μl/well washing buffer (1×PBST, diluted from 20×PBST (Thermo Scientific) with distilled water)) and then blocked with 300 μl/well of blocking buffer (1×PBST/3% BSA) for 2 hours at RT on shaker (100 rpm). […] Plates were washed and added with 100 μl/well TMB substrate for color development at room temperature in dark for up to 10 minutes. After addition of 50 μl/well of stop solution (1N H₂SO₄), plates were read at 450 nm on a plate reader (SpectraMax M5).

[7] = molecular target: T4, human PD-L1 expressed on cell surface; assay: cell-based or functional assay; remark: listed apart in the source

T4 sequence (Q9NZQ7 19-290 limits assumed): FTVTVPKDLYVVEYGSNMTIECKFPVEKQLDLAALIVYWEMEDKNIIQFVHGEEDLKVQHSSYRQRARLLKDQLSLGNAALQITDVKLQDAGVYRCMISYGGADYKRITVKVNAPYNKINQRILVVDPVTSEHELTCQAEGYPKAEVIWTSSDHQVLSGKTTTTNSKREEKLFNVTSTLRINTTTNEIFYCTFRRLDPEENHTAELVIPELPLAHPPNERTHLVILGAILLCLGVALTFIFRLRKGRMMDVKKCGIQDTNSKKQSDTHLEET
T5 sequence (Q9NZQ7 19-239 limits assumed): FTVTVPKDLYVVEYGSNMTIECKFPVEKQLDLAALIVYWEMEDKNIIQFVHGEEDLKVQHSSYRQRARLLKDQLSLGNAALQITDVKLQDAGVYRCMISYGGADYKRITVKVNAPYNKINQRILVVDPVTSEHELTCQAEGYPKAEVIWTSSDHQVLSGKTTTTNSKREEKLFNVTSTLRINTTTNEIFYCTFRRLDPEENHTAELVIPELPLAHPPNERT
Sequence of mouse PD-L1 (Sino Biological, Cat #50010-M08H) (Q9EP73 19-238 limits assumed, stated change not applied): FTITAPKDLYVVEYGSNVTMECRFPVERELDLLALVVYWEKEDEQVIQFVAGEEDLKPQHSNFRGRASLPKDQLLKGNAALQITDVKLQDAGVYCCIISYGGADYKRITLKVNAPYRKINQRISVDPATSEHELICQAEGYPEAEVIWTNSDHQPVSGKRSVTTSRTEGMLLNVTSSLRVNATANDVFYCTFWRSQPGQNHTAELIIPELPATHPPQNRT

Row | Binder | binding result [1] | binding result [2] | binding result [3] | binding result [4] | IC50 (nM), Promega PD-1/PD-L1 blockade reporter assay, another assay [5] | IC50 [6] | IC50 (nM), Promega PD-1/PD-L1 blockade reporter assay [7]
1 | 33E8 (antibody, human IgG1, V domains shown) VH: QSLEESGGDLVKPGASLTLTCTASGFYFSSGYDMSWVRQAPGKGLEWIASIFTTSGSTWYANWAKGRFTISKTSSTTVTLQMTSLTDADTATYFCTKDGVGSFYMNLWGPGTLVTVSS VL: LVMTQTPASVEVAVGGTVTIKCQASQTIGSNLAWYQQRPGQPPKLLIYKAFTLASGVSSRFKGSGSGTQFTLTISGVECADAATYYCQQGATRINIDNAFGGGTEVVVK | no binding | no binding | no binding | no binding | 0.38 nM | 3.1 nM | 
2 | 27A2 (antibody, human IgG1, V domains shown) VH: QEQLEESGGGLVQPEGSLTLTCTASGFSFSSNHYMSWVRQAPGKGLEWIGSIGVGSGITDYASWAKGRFTISKASSTTLTLQMTTLTAADTAIYFCARWTSGGGGFGLWGPGTLVTVSS VL: QVLTQTSSPVSAAVGGTVTINCQSSQTIYSDYLFWYQQTPGQPPKLLIYQTSTLASGVPSRFKGSGSGTEFTLTISEIQCDDAATYYCQGYYSGYIWTFGGGTEVVVR | no binding | no binding | no binding | no binding | 0.35 nM | 1.9 nM | 0.23 nM
3 | 74F4 (antibody, human IgG1, V domains shown) VH: QEQLEESGGGLVQPEGSLTLTCTASGFSFSGDYYMSWVRQAPGKGLEWIASIYTGSLNTYYATWAKGRFTISLTSSTTVTLQMTSLTAADTATYFCARRNKNADYGHFDLWGPGTLVTVSS VL: YDMTQTPASVEVAVGGTVTIKCQASQSINDRLAWYQQSPGQPPKLLIYGASTLASGVPSRFKGSGSGTDFTLTISDLECADAATYYCQQGWTVSSLDNAFGGGTEVVAK | no binding | no binding | no binding | no binding |  |  | 
4 | 73C8 (antibody, human IgG1, V domains shown) VH: QEQLEESGGGLVQPEGSLTLTCTVSGFSFSGDYYMSWVRQAPGKGLEWVASIYTGSLNTYYATWAKGRFTISLTSSTTVTLQMTSLTAADTATYFCARRNKNADYGHFDLWGPGTLVTVSS VL: YDMTQTPASVEVAVGGTVTIKCQASQSINDRLAWYQQKPGQPPKLLIYAASTLASGVPSRFRGSGSGTDFTLTISDLECADAATYYCQQGWTVSSLDNAFGGGTEVVAM | no binding | no binding | no binding | no binding |  |  | 
5 | 62E6 (antibody, human IgG1, V domains shown) VH: QEQLEESGGDLVKPEGSLTLTCTASGFSFSGDYYMSWVRQAPGKGLEWIASIYTGSLNIYYATWAKGRFTISLTSSTTVTLQMTSLTAADTATYFCARRNKNADYGHFDLWGPGTLVTVSS VL: YDMTQTPASVEVAVGGTVTIKCQASQSINDRLAWYQQKPRQPPKLLIYGASTLASGVPSRFKGSGSGTEFTLTISDLECVDAATYYCQQGWTVSSLDNAFGGGTEVVAK | no binding | no binding | no binding | no binding |  |  | 0.41 nM
6 | 55H3/76D6 (antibody, human IgG1, V domains shown) VH: QEQLEESGGGLVQPEGSLTLTCTVSGFSFSGDYYMSWVRQAPGKGLEWVASIYTGSLNSYYATWAKGRFTISLTSSTTVTLQMTSLTAADTATYFCARRNKNADYGHFDLWGPGTLVTVSS VL: YDMTQTPASVEVAVGGTVTIKCQASESINDRLAWYQQKPGQPPKLLIYAASTLASGVPSRFRGSGSGTDFTLTISDLECADAATYYCQQGWTVSSLDNAFGGGTEVVAM | no binding | no binding | no binding | no binding |  |  | 0.97 nM
7 | 56E5 (antibody, human IgG1, V domains shown) VH: QEQLEESGGGLVQPEGSLTLTCTASGFSFSGDYYMSWVRQAPGKGLEWIASIYTGSLNTYYATWAKGRFTISLTSSTTVTLQMTSLTAADTATYFCARRHKNADYGHFDLWGPGTLVTVSS VL: YDMTQTPGSVEVAVGGTVTIKCQASQSINDRLAWYQQTPGQPPKLLIYGASTLASGVPSRFKGSGSGTEFTLTISDLECADAATYYCQQGWTVSSLDNAFGGGTEVVAK | no binding | no binding | no binding | no binding |  |  | 0.41 nM
8 | 33H7 (antibody, human IgG1, V domains shown) VH: QEQLVESGGGLVQPEGSLTVTCTASGFDLSRYFYMSWVRQAPGKGLEWIASISTGSDITDYASWAKGRFTISKTSSTTVTLQMTTLTAADTAIYFCARWTSGGGGFGLWGPGTLVTVSS VL: QVLTQTASPVSAAVGGTVTLNCQSSQSIYNNYLSWYQQRAGQPPKLLIYSTATLASGVPSRFKGSGSGTQFTLTISEIQCEDAATYYCQGYYSGYIWTFGGGTEVVVK | no binding | no binding | no binding | no binding |  | 2.1 nM | 0.52 nM

Other lines, results leading:

Row | binding result [1] | binding result [2] | binding result [3] | binding result [4] | IC50 (nM), Promega PD-1/PD-L1 blockade reporter assay, another assay [5] | IC50 [6] | IC50 (nM), Promega PD-1/PD-L1 blockade reporter assay [7] | Binder
9 | no binding | no binding | no binding | no binding |  | 7.5 nM |  | 32E2 (antibody, human IgG1, V domains shown) VH: QEQLEESGGDLVKPEGSLTLTCTASGFSFSSSYYMSWVRQAPGMGLEWIASISGGVTDNAYYASWAKGRFTVSKTSSTTVTLQLTSLTAADTATYFCARDSSSGYFFLLWGPGTLVTVSS VL: LVMTQTPSSVSAAVGGTVTINCQASQNIYSNLAWYQQKPGQRPKLLIFGASNLRSGVPSRFKGSGSGTEYTLTISDLECADAATYYCQEGYSIGNVDNPFGGGTEVVVK
10 | no binding | no binding | no binding | no binding |  |  |  | 57F11 (antibody, human IgG1, V domains shown) VH: QEHLEESGGGLVQPEGALTLTCTASGFSFSGDYYMSWVRQAPGKGLEWIASIYTGSLNTYYATWAKGRFTISIASSTTVTLQVTSLTAADTATYFCARRTKNGDYGYFDLWGPGTLVTVSS VL: YDMTQTPASVEVAVGGTVTIKCQASQSINDRLAWYQQKPGQPPKLLIYAASTLASGVPSRFKGSGSGTEFTLTISDLECADAATYYCQQGWTVSSLENAFGGGTEVVAK
11 | no binding | no binding | no binding | no binding |  |  | 0.47 nM | 57B10 (antibody, human IgG1, V domains shown) VH: QEQLEESGGGLVQPEGSLTLTCTASGFSFSDDYYMSWVRQAPGKGLEWIASIYTGSLNTYYATWAKGRFTISLTSSTTVTLQMTSLTAADTATYFCARRNKNADWGHFDLWGPGTLVTVSS VL: YDMTQTPASVEVAVGGTVTIKCQASQSISTALAWYQQKPGQPPKLLIYAASTLASGVPSRFRGSGSGTDFTLTISDLECADAATYYCQQGWTVSSLDNAFGGGTEVVAM
12 | no binding | no binding | no binding | no binding |  |  |  | 69D10 (antibody, human IgG1, V domains shown) VH: QEQLEESGGGLVQPEGSLTLTCTASGFSFSGDWYMSWVRQAPGKGLEWIASIYSGSLNTYYATWAKGRFTVSLTSSTTVTLQMTSLTAADTATYFCARRNKNADYGHFDLWGPGTLVTVSS VL: YDMTQTPASVEVAVGGTVTIKCQASQSIGNALAWYQQKPGQPPKLLIYATSTLASGVPSRFKGSGSGTEFTLTISDLECGDAATYYCQQGWTVSSLDNAFGGGTEVVAK
